This assay has as its target rabbit IgG.

Take “TEM-PA hybrid protein where one repeated domain of the protein A was internalised (from UniProt P62593 24-195; P38507 212-269; P62593 196-286)”: the amount of immobilised rabbit IgG that can be detected lay in the range of 10 to 100 ng.

The record behind these values is patent publication US20070161040A1.
